# B1: human CaMKIIα hub domain containing six mutations (6x Hub) (domain or fragment, UniProt Q9UQM7 345-475, looked up)
# chain: VRKQEIIKVNQQLIEAISNGDFESYTKMCDPGMTAFEPEALGNLVEGLDFHRFYFENLWSRNSKPVHNTMLNPHIHLMGDESACIAYIRITQYLDAGGIPRTAQSEETRVWHRRDGKWQHVHMHRSGAPSV
# Biological target: the molecule itself
# Assay: crystal structure
protein,measurement,value
B1,stoichiometry N,14

# Source: article doi:10.1101/2020.09.28.310474 (bioRxiv, 2020)
